Measured values taken from publication PMC6638984 (2019).

Target: T1, BS69 coiled-coil MYND domain (BS69_(CC-MYND), amino acids 480-602) (human, UniProt Q15326 480-602)
T1 chain: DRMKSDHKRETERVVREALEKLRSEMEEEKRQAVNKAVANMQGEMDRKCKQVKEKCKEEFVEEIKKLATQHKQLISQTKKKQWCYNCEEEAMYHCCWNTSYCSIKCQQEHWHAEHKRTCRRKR
Experiment: ITC

B1: type 1 EBNA2 polypeptide T1 EBNA2_(381-455) (domain or fragment)
chain: SMPELSPVLGLHQGQGAGDSPTPGPSNAAPVCRNSHTATPNVSPIHEPESHNSPEAPILFPDDWYPPSIDPADLD
  Kd: 730 nM
